The values that follow come from the RNAGym collection of RNA variant scans (doi:10.7554/elife.80360).

To fix the notation:
B1: Twister Ribozyme (parent)
chain: AACACUGCCAAUGCCGGUCCCAAGCCCGGAUAAAAGUGGAGGGGGCGG

The data set covers variants of B1. The data set is described as follows: self-cleavage, relative activity (ratio to wild type); higher = more cleavage; co-transcriptional.
For the variant AACACGGCCAAUGCCGGUCCCAAGCCCCGAUAAAAGUGGAGGGGGCGG [U6G G28C], the self-cleavage was found to be 0.16.
With AACACGGCCAAUGCCGGUCCCAAGCACGGAUAAAAGUGGAGGGGGCGG [U6G C26A] the figure was 0.0837.
Regarding AACACGGCCAAUGCCGGUCCCAAGCUCGGAUAAAAGUGGAGGGGGCGG [U6G C26U], the self-cleavage stood at 0.0975.
With AACACCGCCAAUGCCGGUCCCAAGCCCGGAUAAUAGUGGAGGGGGCGG [U6C A34U], the self-cleavage turned out to be 0.333.
With AACACCGCCAAUGCCGGUCCCAAGCCCGGAUAAGAGUGGAGGGGGCGG [U6C A34G] the figure was 0.788; with AACACCGCAAAUGCCGGUCCCAAGCCCGGAUAAAAGUGGAGGGGGCGG [U6C C9A], 0.0857.
As for AACACGGCCAAUGCCGGUCCCAAUCCCGGAUAAAAGUGGAGGGGGCGG [U6G G24U], the self-cleavage turned out to be 0.145.
AACACGGCCAAUGCCGGUCCCAACCCCGGAUAAAAGUGGAGGGGGCGG [U6G G24C]: the self-cleavage amounted to 0.356.
Turning to AACACCGCCAAGGCCGGUCCCAAGCCCGGAUAAAAGUGGAGGGGGCGG [U6C U12G], the self-cleavage came to 0.465.
AACACCGCCAACGCCGGUCCCAAGCCCGGAUAAAAGUGGAGGGGGCGG [U6C U12C]: the self-cleavage turned out to be 0.613.
Consider AACACCGCCAAAGCCGGUCCCAAGCCCGGAUAAAAGUGGAGGGGGCGG [U6C U12A], for which the self-cleavage was determined as 0.663.
On to AACACGGCCAAUGCAGGUCCCAAGCCCGGAUAAAAGUGGAGGGGGCGG [U6G C15A], for which the self-cleavage is 0.301.
Consider AACACGGCCAAUGCUGGUCCCAAGCCCGGAUAAAAGUGGAGGGGGCGG [U6G C15U], for which the self-cleavage worked out at 0.569.
With AACACGGCCAAUGCCGGUCCCAAGCCCGGAUAAAAGUGGCGGGGGCGG [U6G A40C] the figure was 0.0854.
AACACGGCCAAUGCCGGUCCCAAGCCCGGAUAAAAGUGGUGGGGGCGG [U6G A40U]: the self-cleavage stood at 0.181.
With AACACCGCCAAUGCCGGUCCCAAGCCCGGAUAAAAGUGGAGGGGGCGU [U6C G48U] the figure was 0.607; with AACACCGCCAAUGCCGGUCCCAAGCCCGGAUAAAAGUGGAGGGGGCGC [U6C G48C], 0.829.
On to AACACGGCCAAUGCCGGUCCCAAGCCAGGAUAAAAGUGGAGGGGGCGG [U6G C27A], for which the self-cleavage stood at 0.0375.
Regarding AACACGGCCAAUGCCGGUCCCAAGCCGGGAUAAAAGUGGAGGGGGCGG [U6G C27G], the self-cleavage worked out at 0.0245.
On to AACACGGCCAAUGCCGGUCCCAAGCCUGGAUAAAAGUGGAGGGGGCGG [U6G C27U], for which the self-cleavage worked out at 0.186.
Take AACACGGCCAAUGCCGGUCCCAAGCCCGGAUAAAGGUGGAGGGGGCGG [U6G A35G]: the self-cleavage was 0.281.
As to AACACCGCCAAUGCCGGUCCCAAGCCCGGAUAAAAGUGGAGAGGGCGG [U6C G42A], the self-cleavage turned out to be 0.0608.
For AACACCGCCAAUGCCGGUCCCAAGCCCGGAAAAAAGUGGAGGGGGCGG [U6C U31A], the self-cleavage worked out at 0.581.
Consider AACACCGCCAAUGCCGGUCCCAAGCCCGGAGAAAAGUGGAGGGGGCGG [U6C U31G], for which the self-cleavage came out at 0.422.
With AACACCGCCAAUGCCGGUCCCAAGCCCGGACAAAAGUGGAGGGGGCGG [U6C U31C] the figure was 0.712.
Consider AACACCGCCAAUGCCGGUCCCAAGCCCGGAUAAAAGUGGAAGGGGCGG [U6C G41A], for which the self-cleavage turned out to be 0.117.
For AACACCGCCAAUGCCGGUCCCAAGCCCGGAUAAAAGUGGACGGGGCGG [U6C G41C], the self-cleavage turned out to be 0.13.
With AACACCGCCAAUGCCGGUCCCAAGCCCGGAUAAAAGUGGAUGGGGCGG [U6C G41U] the figure was 0.113.
Take AACACGGCCAAUGCCUGUCCCAAGCCCGGAUAAAAGUGGAGGGGGCGG [U6G G16U]: the self-cleavage came to 0.296.
Consider AACACGGCCAAUGCCCGUCCCAAGCCCGGAUAAAAGUGGAGGGGGCGG [U6G G16C], for which the self-cleavage amounted to 0.156.
In the case of AACACCGCCAAUGCCGGUCCCAAGCCCGGAUAAAAGUGGUGGGGGCGG [U6C A40U] it was 0.119; in that of AACACCGCCAAUGCCGGUCCCAAGCCCGGAUAAAAGUGGCGGGGGCGG [U6C A40C], 0.11; in that of AACACCGCCAAUGCCGGUCGCAAGCCCGGAUAAAAGUGGAGGGGGCGG [U6C C20G], 0.0668.
For the variant AACACCGCCAAUGCCGGUCCCAAGCCUGGAUAAAAGUGGAGGGGGCGG [U6C C27U], the self-cleavage came out at 0.275.
With AACACCGCCAAUGCCGGUCCCAAGCCGGGAUAAAAGUGGAGGGGGCGG [U6C C27G] the figure was 0.0742; with AACACCGCCAAUGCCGUUCCCAAGCCCGGAUAAAAGUGGAGGGGGCGG [U6C G17U], 0.072; with AACACCGCCAAUGCCGGUCCCAAGCCCGGAUAAAAGUGGAGGGGGUGG [U6C C46U], 0.625.
In the case of AACACCGCCAAUGCCGGUCCCAAGCCCGGAUAAAAGUGGAGGGGGGGG [U6C C46G], the self-cleavage was 0.589.
Consider AACACCGCCAAUGCCGGUACCAAGCCCGGAUAAAAGUGGAGGGGGCGG [U6C C19A], for which the self-cleavage amounted to 0.104.
For AACACGGCCAAUGCCGGUCCCAAGCCCGGAUAAAAGUGGAGGGGGGGG [U6G C46G], the self-cleavage worked out at 0.406.
As for AACACGGCCAAUGCCGGUCCCAAGCCCGGAUAAAAGUGGAGGGGGUGG [U6G C46U], the self-cleavage stood at 0.632.
Consider AACACGGCCAAUGCCGGUCCCAAGCCCGGAUAAAAGUGGAGGGGGAGG [U6G C46A], for which the self-cleavage turned out to be 0.411.
For AACACGGCCAAUGCCGAUCCCAAGCCCGGAUAAAAGUGGAGGGGGCGG [U6G G17A], the self-cleavage was 0.075.
Consider AACACGGCCAAUGCCGUUCCCAAGCCCGGAUAAAAGUGGAGGGGGCGG [U6G G17U], for which the self-cleavage stood at 0.0541.
With AACACGGCCAAUGCCGCUCCCAAGCCCGGAUAAAAGUGGAGGGGGCGG [U6G G17C], the self-cleavage is 0.0484.
AACACCGCCAAUGCCGGUCCCAAGCCCGGAUAAAAGUGGAGGGUGCGG [U6C G44U]: the self-cleavage was determined as 0.502.
For the variant AACACCGCCAAUGCCGGUCCCAAGCCCGCAUAAAAGUGGAGGGGGCGG [U6C G29C], the self-cleavage worked out at 0.173.
Regarding AACACGUCCAAUGCCGGUCCCAAGCCCGGAUAAAAGUGGAGGGGGCGG [U6G G7U], the self-cleavage was 0.626.
AACACGACCAAUGCCGGUCCCAAGCCCGGAUAAAAGUGGAGGGGGCGG [U6G G7A]: the self-cleavage was 0.501.
As for AACACCGCCAAUGCCGGUCCCAAGCCCUGAUAAAAGUGGAGGGGGCGG [U6C G28U], the self-cleavage is 0.295.
In the case of AACACCGCCAAUGCCGGUCCCAAGCCCCGAUAAAAGUGGAGGGGGCGG [U6C G28C] it was 0.215; in that of AACACCGCCAAUGCCGGUCCCAAGCCCAGAUAAAAGUGGAGGGGGCGG [U6C G28A], 0.319; in that of AACACGGCCAAUGCCGGUCCCAAGUCCGGAUAAAAGUGGAGGGGGCGG [U6G C25U], 0.252.
Regarding AACACGGCCAAUGCCGGUCCCAAGGCCGGAUAAAAGUGGAGGGGGCGG [U6G C25G], the self-cleavage amounted to 0.0804.
